The values that follow come from patent publication US20260167721A1 (ABLEXIS, published 2026).

Test [1] concerns the target T1, recombinant human CD3 epsilon/delta heterodimer (human, UniProt P07766 23-126; P04234 22-105).
T1 construct: Recombinant protein in solution (200-50 nM) in the Octet assay; also called hCD3 E/D; human CD3E/D
The test is described as follows: Octet BLI, mAb on FAB2G sensor, hCD3 E/D 200-50 nM; R^2 0.99.

Test [2] concerns the target T2, recombinant human CD3 epsilon/gamma heterodimer (human, UniProt P07766 23-126; P09693 23-116).
T2 construct: Recombinant protein in solution (200-50 nM) in the Octet assay; also called hCD3 E/G
Kind of test: Octet BLI, mAb on FAB2G sensor, hCD3 E/G 200-50 nM; R^2 0.99. For orientation: BLI is a label-free optical method that tracks binding on a fibre tip over time.

T1 sequence (P07766 23-126, stated change not applied, chain 1 of 2): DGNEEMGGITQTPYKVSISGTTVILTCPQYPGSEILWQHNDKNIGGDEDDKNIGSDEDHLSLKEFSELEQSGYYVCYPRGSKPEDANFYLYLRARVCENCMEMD
T1 sequence (P04234 22-105, stated change not applied, chain 2 of 2): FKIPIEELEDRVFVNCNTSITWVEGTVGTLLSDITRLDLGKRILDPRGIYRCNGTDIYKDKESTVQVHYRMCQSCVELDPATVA
T2 sequence (P07766 23-126, chain 1 of 2): as the sequence (P07766 23-126, stated change not applied, chain 1 of 2) above
T2 sequence (P09693 23-116, chain 2 of 2): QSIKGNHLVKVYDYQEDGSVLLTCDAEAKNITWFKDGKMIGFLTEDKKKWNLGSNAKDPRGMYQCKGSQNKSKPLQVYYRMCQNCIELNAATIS

B1: ABL-CD3-3 (antibody, V domains shown)
VH: EVQLVESGGGLVKPGGSLRLSCAASGFTFSSYSMNWVRQAPGKGLEWVSYISRSSNYIHYADSVKGRFTIFRDNAKNSLYLQMNSLRVEDTAVYYCARAERGSYAVDIWGQGTMVTVSS
VL: not shown
notes: Chimeric hybridoma mAb: human V, CH1, upper hinge; mouse middle hinge, CH2, CH3
Consider B1, for which, in test [1], the dissociation constant (Kd) (in general, the concentration at which binding is half-saturated) turned out to be 10.4 nM; the Response is 1.03; the koff (usually the rate constant with which the complex falls apart) amounted to 0.0012 s⁻¹; the kon (in general, the second-order rate constant of association) came to 116000 M⁻¹ s⁻¹. In test [2], the Kd is 12.4 nM, the Response worked out at 0.96, the koff was found to be 0.00143 s⁻¹ and the on-rate constant (kon) is 115000 M⁻¹ s⁻¹.

B2: ABL-CD3-4 (antibody, V domains shown)
VH: VQLVESGGGLVKPGGSLRLSCAASGFTFSSYNMNWVRQAPGKGLEWVSSISSSSSYIYYADSVKGRFTISRDNAKNSLYLQMNSLRAEDTAVFYCARAERGSYAFDIWGQGTMVTVSS
VL: not shown
notes: as for B1
For B2, in test [1], the Kd came out at 94.5 nM, the Response is 0.32, the koff worked out at 0.0302 s⁻¹ and the kon stood at 320000 M⁻¹ s⁻¹. In test [2], the Kd is 91.9 nM, the Response turned out to be 0.36, the off-rate constant (koff) was 0.0221 s⁻¹ and the kon stood at 241000 M⁻¹ s⁻¹.

B3: ABL-CD3-5 (antibody, V domains shown)
VH: EVQLVESGGGLVQPGGSLRLSCAASGFTFSRYSMNWVRQAPGKGLEWVSYISSSSSSIYYADSVKGRFTISRDNAKNSLYLQMNSLRDEDTAVYYCARDRRATLDYWGQGTLVTVSS
VL: NFMLTQPHSVSESPGKTVTISCTRSSGSIASNYVQWYQQRPGSSPTTVIYEDNQRPSGVPDRFSGSIDSSSNSASLTISGLKTEDEADYYCQSYDSSNHVFGGGTKLTVL
notes: as for B1
As to B3, in test [1], the Kd came to 88.1 nM, the Response turned out to be 0.36, the koff is 0.0321 s⁻¹ and the kon was determined as 365000 M⁻¹ s⁻¹. For the same molecule, in test [2], the Kd was found to be 106 nM, the Response came to 0.27, the koff worked out at 0.0449 s⁻¹ and the kon was found to be 423000 M⁻¹ s⁻¹.

B4: ABL-CD3-28 (antibody, V domains shown)
VH: QVQLQQSGPGLVKPSQTLSLTCAISGDSVSSNSVAWNWIRQSPSRGLEWLGRTYYRSKWYNECAGSVKSRITINPDTSKNQFSLQLNSVTPEDTAIYYCARERKWELFLDYWGQGTLVTVSS
VL: NFMLTQPHSVSESPGKTVTISCTRSSGSIASNYVQWYQQRPGSSPTTVIYEDNQRPSGVPDRFSGSIDSSSNSASLTISGLKTEDEADYYCQSFDSSNVVFGGGTKLTVL
notes: as for B1
On to B4, for which, in test [1], the Kd came to 7.88 nM, the Response came to 0.77, the koff came to 0.00133 s⁻¹ and the kon turned out to be 168000 M⁻¹ s⁻¹. Further, in test [2], the Kd was 5.6 nM, the Response was 0.77, the off-rate constant (koff) was determined as 0.000798 s⁻¹ and the kon stood at 143000 M⁻¹ s⁻¹.

B5: ABL-CD3-20 (antibody, V domains shown)
VH: EVQLVESGGGLVKPGGSLRLSCAASGLTFSTYSMNWVRQAPGKGLEWVSSISSSGSYVYYADSVKGRFTMSRDNAKNSLYLQMNSLRAEDTAVYYCARERRELLFDYWGQGTLVTVSS
VL: NFMLTQPHSVSESPGKTVTISCTRSSGSIASNYVQWYQQRPGSSPTSVIYEDNQRPSGVPDRFSGSIDSSSNSASLTISGLKTEDEADYYCQSYDRSNRVFGGGTKLTVL
notes: as for B1
B5: in test [1], the Kd was 10.5 nM, the Response is 0.51, the koff amounted to 0.00229 s⁻¹ and the kon is 219000 M⁻¹ s⁻¹. Moreover, in test [2], the Kd stood at 18.3 nM, the Response stood at 0.45, the off-rate (koff) is 0.00379 s⁻¹ and the kon was found to be 207000 M⁻¹ s⁻¹.

B6: ABL-CD3-48 (antibody, V domains shown)
VH: EVQLVESGGGLVKPGGSLRLSCAASGFTFSSYTMNWVRQAPGKGLEWVSSISGSGSYIYYADSVKGRFTISRDNAKNSLYLQMNSLRAEDTAVYYCAREPPTLGMDYWGQGTLVTVSS
VL: NFMLTQPHSVSESPGKTVTISCTRSSGSIASNYVQWYQQRPGSSPTTVIYEDNQRPSGVPDRFSGSIDSSSNSASLTISGLKTEDEADYYCQSFDSSNRVFGGGTKLTVL
notes: as for B1
Take B6: in test [1], the Kd is 11.5 nM, the Response turned out to be 1.17, the koff stood at 0.00114 s⁻¹ and the on-rate constant (kon) came out at 99300 M⁻¹ s⁻¹. For the same molecule, in test [2], the Kd turned out to be 17.9 nM, the Response stood at 1.03, the koff came out at 0.00179 s⁻¹ and the kon came out at 100000 M⁻¹ s⁻¹.

B7: ABL-CD3-10 (antibody, V domains shown)
VH: QVQLQQSGPGLVKPSQTLSLTCAISGDSVSCNSVAWNWIRQSPSRGLEWLGRTYYRSKWHNEYAVSVKSRINIKPDTSKNQVSLQLKSVTPEDTAVYYCARERKWELFLDYWGQGTLVTVSS
VL: NFMLTQPHSVSESPGKTVTISCTRSSGSIASNYVQWYQQRPGSSPTTMIYEDNQRPSGVPDRFSGSIDSSSNSASLTISGLKTEDEADYYCQSLDSSSVVFGGGTKLTVL
notes: as for B1
B7: in test [1], the Kd was 2.47 nM, the Response was 0.52, the dissociation rate constant (koff) came to 0.00046 s⁻¹ and the association rate constant (kon) is 186000 M⁻¹ s⁻¹. Also, in test [2], the Kd came out at 2.41 nM, the Response is 0.46, the koff was determined as 0.00039 s⁻¹ and the kon was determined as 162000 M⁻¹ s⁻¹.

B8: ABL-CD3-24 (antibody, V domains shown)
VH: EVQLVESGGGLVKPGGSLRLSCVASGFTFSSYTMNWVRQAPGKGLEWVSSISRSGSYKYNADSVKGRFTISRDNAKNSLYLQMNSLRVEDTAVYYCAREPPTLGMDYWGQGTLVTVSS
VL: NFMLTQPHSVSESPGKTVTISCTRSSGSIASNYVQWYQQRPGSSPTTVIYEDNQRPSGVPDRFSGSIDSSSNSASLTISGLKTEDEADYYCQSFYSSNRVFGGGTELTVL
notes: as for B1
For the molecule B8, in test [1], the Kd was 5.78 nM, the Response is 0.93, the koff was 0.00101 s⁻¹ and the kon was determined as 175000 M⁻¹ s⁻¹. Besides, in test [2], the Kd turned out to be 8.48 nM, the Response came to 0.89, the koff worked out at 0.00134 s⁻¹ and the kon worked out at 158000 M⁻¹ s⁻¹.

B9: ABL-CD3-50 (antibody, V domains shown)
VH: QVQLQQSGPGLVKPSQTLSLTCAISGDSVSSNSVAWNWIRQSPSRGLEWLGRTYSRSKWYNDYAVSVKSRITINPDTSKNQFSLELNSVTPEDTAVYYCARERKWELFLDYWGQGTLVTVSS
VL: NFMLTQPHSVSESPGKTVTISCTRSSGSIASNYVQWYQQRPGISPTTVIYEDNQRPSGVPDRFSGSIDSSSNSASLTISGLKTEDEADYYCQSFDTSNVVFGGGTKLTVL
notes: as for B1
As for B9, in test [1], the Kd worked out at 21 nM, the Response amounted to 0.57, the koff was 0.0047 s⁻¹ and the on-rate constant (kon) came out at 224000 M⁻¹ s⁻¹. In test [2], the Kd was 12.6 nM, the Response was found to be 0.6, the koff was determined as 0.00247 s⁻¹ and the kon worked out at 196000 M⁻¹ s⁻¹.

B10: ABL-CD3-7 (antibody, V domains shown)
VH: EVQLVESGGGLVKPGGSLRLSCAASGFTFSRYSMNWVRQAPGKGLKWVSSISSSGSYKYYADSVKGRFTISRDNAKNSLYLQMNSLRAEDTAVYYCAREPPTLGMDYWGQGTLVTVSS
VL: NFMLTQPHSVSESPGKTVTISCTRSSGSIASNYVQWYQQRPGSSPTTVIYEDNQRPSGVPDRFSGSIDSSSNSASLTISGLKTEDEADYYCQSFDNSNRVFGGGTKLTVL
notes: as for B1
For B10, in test [1], the Kd came to 4.14 nM, the Response turned out to be 0.86, the koff is 0.000786 s⁻¹ and the kon turned out to be 190000 M⁻¹ s⁻¹. In test [2], the Kd turned out to be 8.42 nM, the Response is 0.81, the koff came to 0.00142 s⁻¹ and the kon turned out to be 169000 M⁻¹ s⁻¹.

B11: ABL-CD3-12 (antibody, V domains shown)
VH: EVQLVESGGGLVKPGGSLRLSCAASGFTFSSYTMNWVRQAPGKGLEWVSSISRSSSYKYYADSVKGRFTISRDNAKNSLYLQMNSLRAEDTAVYYCAREPPTLGMDYWGQGTLVIVSS
VL: NFMLTQPHSVSESPGKTVTISCTRSNGSITSNYVQWYQQRPGSSPTTVIYEDNQRPSGVPDRFSGSIDSSSNSASLTISGLKTEDEADYYCQSFDNSNRVFGEKTKLTVL
notes: as for B1
For B11, in test [1], the dissociation constant (Kd) turned out to be 10.6 nM, the Response came to 1.21, the koff was determined as 0.00144 s⁻¹ and the kon came to 136000 M⁻¹ s⁻¹. Further, in test [2], the Kd was 10.5 nM, the Response came to 1.14, the koff was determined as 0.00124 s⁻¹ and the kon was 118000 M⁻¹ s⁻¹.

B12: ABL-CD3-26 (antibody, V domains shown)
VH: EVHLVESGGGLVKPGGSLRLSCAASGFTFSSYSMNWVRQAPGKGLEWVSSISSSSTYIYYADSVKGRFTISRDNAKNSLYLQMNSLRAEDTAVYYCAREPRTLGMDYWGQGILVTVSS
VL: NFMLTQPHSVSESPGKTVTISCTRSSGSIASNYVQWYQQRPGSSPTTVIYEDNHRPSGVPDRFSGSIDSSSNSASLTISGLKTEDEADYFCQSFDSSNRVFGGGTKLTVL
notes: as for B1
B12: in test [1], the Kd was 6.66 nM, the Response turned out to be 1.03, the koff was 0.00104 s⁻¹ and the kon worked out at 156000 M⁻¹ s⁻¹. In addition, in test [2], the Kd stood at 9.31 nM, the Response was 1.01, the koff was determined as 0.00123 s⁻¹ and the kon is 132000 M⁻¹ s⁻¹.

B13: ABL-CD3-47 (antibody, V domains shown)
VH: EVQLVESGGGLVQPGGSLRLSCAASGFTFSRYSMNWVRQAPGKGLEWVSYISRSSTTIYYADSVKGRFTISRDNAKNSLYLQMNSLRDEDAAVYYCARERWELLYFDYWGQGTLVTVSS
VL: NFMLTQPHSVSESPGKTVTISCTRSSGSIASKYVQWYQQRPGSSPTTVIYEDNQRPSGVPDRFSGSIDSSSNSASLTISGLKTEDEADYYCQSYYSNNRVFGGGTKLTVL
notes: as for B1
For the molecule B13, in test [1], the dissociation constant Kd was found to be 16.9 nM, the Response turned out to be 0.62, the koff came out at 0.00291 s⁻¹ and the kon turned out to be 172000 M⁻¹ s⁻¹. Further, in test [2], the Kd came out at 36.2 nM, the Response was 0.43, the koff was 0.00785 s⁻¹ and the kon worked out at 217000 M⁻¹ s⁻¹.
